Where a chain is given by its changes, count along the chain named. Numbers in names are those of the source.
B1: SpyQ100L (natural protein, E. coli, UniProt P77754 24-161, looked up)
chain: ADTTTAAPADAKPMMHHKGKFGPHQDMMFKDLNLTDAQKQQIREIMKGQRDQMKRPPLEERRAMHDIIASDTFDKVKAEAQIAKMEEQRKANMLAHMETLNKIYNILTPEQKKQFNANFEKRLTERPAAKGKMPATAE
notes: Spy of E. coli with Q100L; also called Spy variant Q100L; source: E. coli BL21 (DE3), purified (Ni-His Trap, HiTrap Q, Superdex 75); not shown: His, N-terminal, cleaved; SUMO, N-terminal, cleaved
B2: SpyH96L (natural protein, E. coli, UniProt P77754 24-161, looked up)
chain: B1 chain with H96L, L100Q
notes: Spy of E. coli with H96L; also called Spy variant H96L; source: E. coli BL21 (DE3), purified (Ni-His Trap, HiTrap Q, Superdex 75); not shown: His, N-terminal, cleaved; SUMO, N-terminal, cleaved
B3: wild-type Spy (natural protein, E. coli, UniProt P77754 24-161, looked up)
chain: B1 chain with L100Q
notes: ATP-independent periplasmic chaperone Spy of E. coli; also called SpyWT; Spy dimer; source: E. coli BL21 (DE3), purified (Ni-His Trap, HiTrap Q, Superdex 75); not shown: His, N-terminal, cleaved; SUMO, N-terminal, cleaved
B4: wild-type Gallus gallus Fyn SH3 domain (T85-D142) (domain or fragment)
chain: not shown
notes: 7 residues added to the N terminus of the domain; Tyrosine-protein kinase Fyn, Gallus gallus, SH3 domain, residues T85-D142; a single arginine added to the C terminus of the domain; The same protein was measured native and unfolded (diluted from 9.5 M urea); the quantity of each row says which state; Primer 1 has a BamHI site (GGA TCC, Gly-Ser) before GAMVQIS, so further residues may remain after …

Columns and labels:
Details in all cases: both partners purified
[1] = target: B4; assay: stopped-flow tryptophan fluorescence kinetics with global fitting; KinTek SF-300X, 25 °C; HN buffer, 0.83 M urea after mixing; 4.8 μM SH3, refolded from 9.5 M urea or native, mixed 1:10.5 with varied Spy (concentrations as dimer); global fit (KinTek Explorer) to the mechanism that allows folding while bound; k-3 fixed at 1000 s^-1
SpyH96L = target: B2; assay: ITC; MicroCal iTC200, 25 °C; HN buffer (40 mM HEPES pH 7.5, 50 mM NaCl) with 0.83 M urea; 2.4 mM SH3 in the syringe titrated into 100 μM Spy or Spy variant in the cell; one-site model; native SH3
wild-type Spy [2] = target: B3; assay: as above
SpyQ100L = target: B1; assay: as above
wild-type Spy [3] = target: B3; assay: as above; remark: listed apart in the source

Kd (native SH3) [1]	Kd (unfolded SH3) [1]	k2 (association, unfolded SH3) [1]	k3 (association, native SH3) [1]	k-2 (dissociation, unfolded SH3) [1]	Kd (SpyH96L)	Kd (wild-type Spy [2])	Kd (SpyQ100L)	stoichiometry N (wild-type Spy [3])	Binder
17 ± 1 µM	0.04 ± 0.003 µM	1.71e+08 ± 8e+06 M⁻¹ s⁻¹	6e+07 ± 2e+06 M⁻¹ s⁻¹	6.8 ± 0.3 s⁻¹	–	–	–	–	B1
11 ± 1 µM	0.76 ± 0.05 µM	2.3e+07 ± 1e+06 M⁻¹ s⁻¹	9.1e+07 ± 1e+07 M⁻¹ s⁻¹	17.4 ± 0.7 s⁻¹	–	–	–	–	B2
83 ± 55 µM	2.9 ± 0.3 µM	1.4e+07 ± 1e+06 M⁻¹ s⁻¹	1.2e+07 ± 8e+06 M⁻¹ s⁻¹	39 ± 3 s⁻¹	–	–	–	–	B3
–	–	–	–	–	71 ± 19 µM	50 ± 6 µM	107 ± 25 µM	1	B4

— paper PMC6811625, “Protein folding while chaperone bound is dependent on weak interactions” (Nature Communications, 2019)
